These are literature values, as cited in PMC8476072.

A word on the Kd: it is the constant that tells how readily two partners part at equilibrium.

This data set has as its target CheZ (Escherichia coli) (UniProt P0A9H9).
Chain of UniProt P0A9H9 (P0A9H9 whole entry): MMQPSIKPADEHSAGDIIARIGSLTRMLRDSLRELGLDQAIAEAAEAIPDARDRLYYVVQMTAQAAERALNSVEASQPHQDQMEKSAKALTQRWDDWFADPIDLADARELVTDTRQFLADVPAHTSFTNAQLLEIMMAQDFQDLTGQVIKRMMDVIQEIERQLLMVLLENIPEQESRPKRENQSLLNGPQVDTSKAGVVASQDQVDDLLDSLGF

In the case of CheY (from UniProt P0AE67), the equilibrium dissociation constant (Kd) is 8 µM.
